Test results reported in EP4386000 (dated 2024).

T1: mouse CD25-his (mouse, UniProt P01590)
T1 chain: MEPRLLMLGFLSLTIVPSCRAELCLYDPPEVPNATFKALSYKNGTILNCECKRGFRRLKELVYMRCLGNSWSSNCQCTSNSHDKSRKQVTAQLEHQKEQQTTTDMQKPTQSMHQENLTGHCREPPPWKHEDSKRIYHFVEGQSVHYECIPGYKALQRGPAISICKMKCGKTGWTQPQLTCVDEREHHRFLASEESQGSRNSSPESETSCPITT

T2: human CD25-his (human, UniProt P01589)
T2 chain: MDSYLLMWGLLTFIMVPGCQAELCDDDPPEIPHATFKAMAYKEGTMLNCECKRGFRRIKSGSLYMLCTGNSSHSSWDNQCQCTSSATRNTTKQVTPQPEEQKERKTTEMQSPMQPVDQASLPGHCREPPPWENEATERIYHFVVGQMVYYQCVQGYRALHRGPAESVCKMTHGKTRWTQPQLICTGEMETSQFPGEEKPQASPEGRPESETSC

T3: human CD25 on CHO-K1 cells (human, UniProt P01589)
T3 chain: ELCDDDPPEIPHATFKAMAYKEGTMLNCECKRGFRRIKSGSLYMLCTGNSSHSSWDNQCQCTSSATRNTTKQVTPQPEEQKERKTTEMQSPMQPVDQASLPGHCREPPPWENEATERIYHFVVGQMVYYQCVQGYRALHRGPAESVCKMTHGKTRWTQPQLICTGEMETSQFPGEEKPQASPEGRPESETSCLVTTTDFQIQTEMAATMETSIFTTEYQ


Experiments:
[1] = target: T1, mouse CD25-his; assay: ELISA
[2] = target: T2, human CD25-his; assay: ELISA
[3] = target: T3, human CD25 on CHO-K1 cells; assay: FACS
[4] = target: T2, human CD25-his; assay: SPR, 25C

binding result [1] | Binder | also measured
no binding | 2047-3H8L2 (2047-3ix) (antibody, V domains shown) VH: QVQLKQSGAELVKPGASVKMSCKTSGYTFTDYVISWVKQRTGQGLEWIGEIYPGSGSTYYNEKFKGKATLTADISSNTAYMQLSSLTSEDSAVYFCASINFDYWGHGTTLTVSS VL: DIVMTQSPATLSVTPGDRVSLSCRASQSISDYLHWYQQKSHESPRLLIKYASQSISGIPSRFSGSGSGSDFTLSINSVEPEDVGVYYCQNGHSFPYTFGGGTKLEIK | 
no binding | 2046-36H2L1 (2046-36ix) (antibody, V domains shown) VH: QIQLVQSGPELKKPGETVRISCKASGYTFTTAGMQWVQKMPGKGLKWIGWINTHSGVPKYAEDFKGRFAFSLETSASTAYLQISNLKNEDTATYFCASDYAFGYWGQGTLVTVSA VL: not shown | 
no binding | 2046-24H2L1 (2046-24ix) (antibody, V domains shown) VH: DVQLQESGPGLVKPSQSLSLTCTVTGYSITSDYAWNWIRQFPGNKLEWMGYISYGGTTIYNPSLKSRISITRDTSKNQFFLQLNSVTTEDTATYYCARWLLQNYYAMDYWGQGTSVTVSS VL: DVVMTQTPLSLPVSLGDQASISCRSSQSLVHSNGNTYLHWYLQKPGQSPKVLIYKVSNRFSGVPDRFSGSGSGTDFTLKISRVEAEDLGVYFCSQNTHVPLTFGAGTKLELK | 
no binding | 2046-18H1L1 (2046-18ix) (antibody, V domains shown) VH: DVQLQESGPGLVKPSQSLSLTCTVTGYSITSDYAWNWIRQFPGNKLEWMGYISYSGITIYNPSLKSRISITRDTSKNQFFLQLNSVTTEDTATYYCARWLLQIYYAMDYWGQGTSVTVSS VL: DVVMTQTPLSLPVSLGDQASISCSSSQSLVHSNGNTYLHWYLHKPGQSPKLLIYKVSNRFSGVPDRFSGSGSGTDFTLKISRVEAEDLGVYFCSQSTHVPLTFGAGTKLELK | 
no binding | 2046-2H1L1 (2046-2ix) (antibody, V domains shown) VH: DVQLQESGPGLVKPSQSLSLTCTVTGYSITSDYAWNWIRHFPGNKLEWMGYITYSGSTVYNPSLKSRISITRDTSKNHFFLQLNSVTTEDTATYYCARWLLQIYYAMDYWGQGTSVTVSS VL: DVVMTQTPLSLPVSLGDQASISCRSSQSLVHSNGNTYLHWYLQKPGQSPKLLIYKVSNRFSGVPDRFSGSGSGTDFTLKISRVEAEDLGVYFCSQSTHVPLTFGAGTKLELK | 
no binding | 2046-61H1L2 (2046-61ix) (antibody) chain 1: DVQLQESGPGLVKPSQSLSLTCTVTGYSITSDYAWNWIRQFPGNKLEWMGYISYSGGTIYNPSLKSRISITRDTSKNQFFLQLNSVTTEDTATYYCARWLLQNYYAMDYWGQGTSVTVSS chain 2: DVVMTQTPLSLPVSLGDQASISCRSSQSLVHSNGNTYLHWNLQKPGQSPKLLIYKVSNRFSGVPDRFSGSGSGTDFTLKISRVEAEDLGVYFCSQSTHVPLTFSAGTKLELK | EC50 [2]: 0.144 µg/mL; EC50 [3]: 0.00114 µg/mL; Kd [4]: 9.44 nM
no binding | 2046-111H2L1 (2046-111ix) (antibody, V domains shown) VH: DVQLQESGPGLVKPSQSLSLTCTVTGHSITSDYAWNWIRQFPGNKLEWMGYISYSGSTIYNPSLKSRISITRDTSKNQFFLQLNSVTTEDTATYYCARWLLQNYYAMDYWGQGTSVTVSS VL: DVVMTQTPLSLPVSLGDQASISCRSSQSLVHSNGNTYLHWYLRKPGQSPKLLIYKVSNRFSGVPDRFSGSGSGTDFTLKISRVEAEDLGVYFCSQSTHVPLTFGAGTKLELK | 
no binding | 2047-10H1L2 (2047-10ix) (antibody, V domains shown) VH: QVQLQQSGPELVRPGVSVKISCKGSGYTFTDYAMHWVKQSHAKSLEWIGVISTYNGNTNYNQKFKGKATMTVDKSSSTAYMELARLTSEDSAIYYCARSYGNYPFDYWGQGTTLTVSS VL: DIKMTQSPSSMYASLGERVTITCKASQDINSYLSWFQQKPGKSPKTLIYRANRLVDGVPSRFSGSGSGQDYSLTISSLEYEDMGIYYCLQYDEFPYTFGGGTKLEIK | 
